According to publication PMC11109965, “Correction of non-random mutational biases along a linear bacterial chromosome by the mismatch repair endonuclease NucS” (Nucleic Acids Research, 2024):

Tests used:
[1] = target: the molecule itself; assay: SEC-MALS; fractions of the main gel filtration peak of NucSSam; molecular weights determined on the right side of the peaks because peak homogeneity was moderate
[2] = target: the molecule itself; assay: SEC + SEC-MALS; purified His-tagged β-clampSam; gel filtration (single peak, about 97 kDa) and SEC-MALS (about 84 kDa)

B1: NucS from Streptomyces ambofaciens (NucSSam), N-terminal His-tagged (enzyme, Streptomyces ambofaciens ATCC23877, UniProt A0ABN4PBG3 1-223, looked up)
chain: MRLVIARCSVDYAGRLTAHLPSAPRLILVKADGSVSIHADDRAYKPLNWMSPPCTLKEGTGEEEGVWTVVNKAGEKLIITMEEILHDSSHELGVDPGLIKDGVEAHLQELLADRIETLGEGYTLIRREYMTAIGPVDILCRDAEGRTVAVEIKRRGEIDGVEQLTRYLELLNRDPHLAPVRGVFAAQEIKPQARVLATDRGIGCQVLDYNAMRGIEDDKLRLF
notes: 223 amino acids; calculated molecular weight 24762.44 Da; Found as monomer and dimer in solution, the monomer prevailing; the monomeric fraction was used in the cleavage assays; also called EndoMS/NucS; His-tagged NucSSam; not shown: His-tag, N-terminal, kept
stoichiometry N [1]: 2

B2: β-clamp from Streptomyces ambofaciens (β-clampSam), N-terminal His-tagged (natural protein)
chain: MKIRVERDVLAEAVAWAARSLPARPPAPVLAGLLLKAEEGQLSLSSFDYEVSARVSVEAEVEEEGTVLVSGRLLADISRALPNRPVEISTDGVRATVVCGSSRFTLHTLPVEEYPALPQMPEATGTVPGEVFAAAVQQVAIAAGRDDTLPVLTGVRIEIEGDSVTLASTDRYRFAVREFLWKPENPEVSAVALVPAKTLQDTAKALTSGDQVILALAGSGAGEGLIGFEGAGRRTTTRLLEGDLPKYKTLFPTEFNSIAVIETAPFVEAVKRVALVAERNTPVRLSFEQGVLILEAGSSDDAQAVERVDAQLEGDDISIAFNPTFLLDGLSAIDSPVAQLSFTTSTKPALLSGKPAVDAEADEAYKYLIMPVRLSG
stoichiometry N [2]: 2
